The results in this text go back to patent US5935840A, “Activated recombinant adenovirus proteinases” (priority 1995, dated 1999).

Series [1] relates to Ad2 major core protein precursor, pVII. In words: Assay of adenovirus proteinase activity in crude extracts: cleavage of [35S]-methionine-labeled pVII (SDS-PAGE, autoradiography). The format is biochemical, adenovirus type 2. As to the method:
The expression products of the above-described Ad2 and Ad12 proteinase plasmids were tested for their ability to cleave the Ad2 major core protein precursor, pVII, in crude extracts from adenovirus-infected cells. The extracts were obtained from human cells infected with the temperature-sensitive mutant Ad2 strain, H2ts1, which has a defective proteinase. As described below, adenovirus proteinase activity requires the presence of two cofactors. […] The recombinant proteinases were also characterized by peptide sequence analysis of their amino-termini.
Bacterial extracts were incubated with the radiolabeled substrate (pVII). Samples were removed at different times and analyzed by SDS-PAGE and autoradiography. […] Appearance of the processed VII band and concurrent decrease of the precursor pVII band indicates proteinase activity. Radiolabeled proteins of Ad2 virions were run on the gel to indicate the positions of pVII, VII, and other virion components (lane a). Extracts from Ad2 -infected HeLa cells were assayed as a positive control for proteinase activity (lane b).
Adenovirus proteinase activity was monitored by the cleavage of [^35 S]-methionine-labeled major core precursor (pVII) essentially as described (Bhatti and Weber, Biochem. Biophys. Res. Comm. 81: 973-797, (1978)). The proteinase substrate was prepared from Ad2Ad2tsl-infected HeLa cells grown at 39° C. and labeled with [^35 S]-methionine (200 μCi/plate) from approximately 28 to 30 hours after infection. Labeled cultures were harvested, washed twice in Phosphate Buffered Saline (PBS), resuspended in 1.0 ml of 10 mM sodium phosphate buffer, pH 7.4, per plate, and sonicated for 40 seconds using a water-cooled sonicator horn (Branson Sonic Power Co., Danbury, Conn.). The extract was then centrifuged at 12,000×g for 10 minutes, and the pellet was resuspended in 10 mM phosphate buffer.
Extracts of Ad-infected cells, harvested 40 hours after infection at 37° C. were used as a source of viral proteinase. Harvested cultures were washed twice with PBS, resuspended in 10 mM phosphate buffer, frozen and thawed once, and centrifuged at 12,000×g for 10 minutes. Pellets were resuspended in 1.0 ml phosphate buffer, pH 7.4, per 10^6 infected cells and sonicated 4×10 seconds; samples were stored at -70° C. Bacterial extracts were prepared by lysozyme-EDTAtreatment of cultures harvested 2 hours after IPTG induction.
Assays were performed by mixing equal volumes of [^35 S]-labeled substrate and test extract and incubating at 37° C. At different times, 25 μl samples were removed, mixed with 25 μl of SDS Sample Buffer, heated to 90° C., and analyzed by SDS-polyacrylamide gel electrophoresis and autoradiography as described (Anderson et al., J. Virol. 12: 241-252 (1973).
Recombinant proteinase polypeptides were assayed for proteinase activity by incubating whole-cell extracts of BL21 (DE3), pT7AD23K5/BL21(DE3), and pT7AD23k6/BL21(DE3), prepared as described above, with extracts of [^35 S]-methionine-labeled Ad2 virion precursor polypeptides. Incubation of the labeled extract at 37° C. for up to 20 hours, alone or with an extract prepared from uninfected HeLa cells, produced little change in the pattern of labeled polypeptides.

Another series concerns HEP1DBP. In words: Cleavage of artificial protein substrate HEP1DBP (SDS-polyacrylamide gel electrophoresis). It is filed as biochemical. The text has this: Recombinant protein substrates that resemble natural virion precursors, such as pVI, can be produced in E. coli by genetic engineering methods similar to those used for expression of recombinant adenovirus proteinase. The recombinant substrate may have an artificial leader sequence that can be removed by proteinase-mediated cleavage. The leader can be designed to aid in purification of the substrate; thus the recombinant substrate can be produced and purified much more efficiently than natural adenovirus substrates. Recombinant protein substrates also serve as prototypes of potential commercial products, showing that the adenovirus proteinase will remove an artificial leader sequence from a recombinant protein that is not related to any adenovirus protein. The first artificial protein substrate was called HEP1DBP. It consists of a 17 amino acid leader (Met-Ala-Ser-Met-Thr-Gly-His-His-His-His-His-His-Gly-Met-Ser-Gly-Gly-) (SEQ ID NO: 37) attached to the initiating methionine of the 232 amino acid DNA binding protein (DBP), of bacteriophage T7. The T7 DBP is the product of gene 2.5. The recombinant proteinase substrate is produced by induction of a pET expression plasmid called pT7HEP1DBP (also called pT7HIS2) (FIG. 7A and Example 11); the predicted sequence of the expressed substrate is given in Table 1. The leader sequence contains six consecutive histidine residues to permit purification by metal affinity chromatography in a manner analogous to purification of the adenovirus proteinase. Immediately preceding the methionine corresponding to the initiation site of the T7 DBP is the tetra-amino acid element -Met-Ser-Gly-Gly- (SEQ ID NO: 38). This segment corresponds to the proteinase recognition sequence in the adenovirus virion precursor polypeptide pVI. The size of the leader sequence was chosen so that the substrate precursor HEP1DBP, and the predicted major product after cleavage, the T7 DBP, could easily be distinguished by SDS-polyacrylamide gel electrophoresis.
When purified HEP1DBP was incubated with disrupted wild-type adenovirus 2 virions, it was cleaved, as determined from the change in its mobility during SDS-polyacrylamide gel electrophoresis. No cleavage was observed when incubation was with disrupted H2ts1 virions alone.
Plasmid pT7HEP1DBP (5346 bp) is a pET-3 derivative that expresses the […] T7 gene 2.5 protein (a single-stranded DNA binding protein) attached to a 17-amino acid leader sequence (FIG. 19). The 249-amino acid HEP1DBP polypeptide serves as an artificial substrate for the adenovirus EP; the leader peptide, MASMTGHHHHHHGMSGG- (SEQ ID NO: 37), ends with the Ad2 proteinase recognition sequence -MSGG- (SEQ ID NO: 38) [Anderson, C. […]

Series [2] in a line: Solubility of bacterially expressed proteinases (10,000×g supernatant/pellet of lysed E. coli). The format is physicochemical. As to the method: The 23k5 and 23k6 products were tested for solubility as an indication of protein folding. Induced bacteria were harvested and lysed with lysozyme-EDTA, and 10,000×g supernatants were prepared.
The expressed proteinase polypeptides were then tested for solubility. Induced bacteria were harvested and lysed with lysozyme-EDTA, and 10,000×g supernatants were prepared. In each case, the majority of the proteinase polypeptide was found in the 10,000×g pellet. When pellet fractions were analyzed by SDS-polyacrylamide gel electrophoresis in the absence of a reducing agent, only a small fraction of the proteinase polypeptides entered the stacking gel, showing that most of the bacterially synthesized proteinase was misfolded and crosslinked through disulfide bonds. This finding was true for both pT7AD23K5 products (23k5a and 23k5b) as well as for the 23k6 polypeptide.

For series [3], the system named is (Leu-Arg-Gly-Gly-NH)2 -rhodamine. Kind of series: Fluorescence assay of proteinase activity of virus and recombinant proteinase preparations. The format is biochemical. The source says: The nature of the proteinase cofactor(s) was pursued with the aid of the second assay, which utilizes the substrate (Leu-Arg-Gly-Gly-NH)2 -rhodamine. The design of this substrate was based on two facts. (1) It was known that the proteinase present in disrupted Ad2 virions would cleave small peptides with sequence similar to that found at natural cleavage sites in adenovirus virion precursors (Webster et al., 1989). (2) Cleavage of either tetra-peptide sequence from the substituted rhodamine substrate produces a very large increase, up to a 3500-fold, in fluorescence. Under conditions where only a small fraction of the rhodamine substrate is cleaved, the increase in fluorescence is proportional to the amount of proteinase present and to the time of incubation. Thus, the fluorescence assay provides a quantitative method for assessing proteinase activity that is more sensitive convenient and rapid than the gel electrophoresis assay.
Assays were performed in 400 μl of Assay Buffer (50 mM Tris-HCl, pH 7.4, 25 mM NaCl, 10 mM octylglucoside, and 1 mM dithiothreitol). […] When present, the number of disrupted virus particles was 10^10 and the amount of recombinant proteinase was 0.12 mAU280 nm. […] After 30 minutes at 37° C., a 360 μl aliquot of the reaction was added to 340 μl of Assay Buffer minus octylglucoside, and the increase in fluorescence was measured. The excitation wavelength was 492 nm and the emission wavelength was 523 nm, both with a bandwidth of 5 nm. The change in fluorescence, ΔF, is the magnitude of the fluorescence from the sample minus the magnitude of the fluorescence from an identical solution without enzyme.
Disrupted virus was obtained as follows: Twice CsCl-banded virus was dialyzed against 10 mM Tris-HCl, pH 8.0, 1mM EDTA and centrifuged at 100,000×g for 1 hour. The pellet was suspended in 10 mM Tris-HCl, pH 6.8, containing 20% (v/v) glycerol and, after three 10 second bursts of sonication, was stored at -20° C. The fluorogenic substrate was synthesized and purified at BNL by Dr. Walter Mangel, using methods similar to those previously described by Dr. Mangel. These methods are described in two U.S. Patents (U.S. Pat. No. 4,557,862 entitled "Rhodamine derivatives as fluorogenic substrates for proteinases" by Mangel, W. F., Leytus, S., and L. Helhado; issued Dec. 10, 1985; U.S. patent application Ser. No. 780,552; "Novel rhodamine derivatives as fluorogenic substrates" by Mangel, W. F., Leytus, S., and L. Helhado; filing date Sep. 24, 1985) and in other publications by Mangel and co-workers.

Entries after “also recorded” stand apart in the source; their conditions may differ.

For “23K6: recombinant wild-type 204/203 amino acid Ad2 proteinase expressed from pT7AD23k6 in E. coli”, the “Stability of processing activity in the bacterial extracts” value in series [1] (37° C.) was “about 2 hours”. Besides, the Activity/Conditions entry in series [1] (Induced, log phase) is “Active”. Further, the “Time by which virtually all of pVII had been converted to VII” value in series [1] (bacterial extract, 37° C.) is recorded as no more than 2 hours. For the same substance, in series [1] (extracts of IPTG-induced, log phase cells), the “Proteinase activity (cleavage of pVII)” value was “significant proteinase activity; also recorded: active”. The “Cleavage of HEP1DBP” value in the series on HEP1DBP (incubated with HEP1DBP alone, no added cofactors) is “no cleavage”. The “Part of recombinant proteinase that folds into a soluble protein” value in series [2] (incubation temperature lowered to 30° at addition of IPTG) is reported as “approximately half”. In addition, the “Solubility of expressed proteinase” value in series [2] (induced bacteria lysed with lysozyme-EDTA, 10,000×g) was “majority of the proteinase was found in the insoluble pellet”.
As for “H2ts1: ts Ad2 proteinase with P to L mutation in codon 137, expressed from pT7AD23K18”, the Activity/Conditions entry in series [1] (no growth conditions printed) was “Temperature-”. The EP activity result in the series on HEP1DBP (DEAE flow-through fractions from pT7AD23K18/BL21(DE3) grown at 30° C., in the presence of H2ts1 virions, substrate not stated) is “No EP activity”.
With “rEP protein: purified recombinant Ad2 proteinase, an activatable proteinase”, in series [3] (8.3 nM rEP protein, 1 μM substrate, no cofactors), the “Rate of substrate hydrolysis by the rEP protein alone” value is listed as “less than 0.014 pmol substrate min^-1”. Moreover, the figures for the “Proteinase activity in fluorescence assay” value in series [3] (complemented with disrupted H2ts1 virus) and in series [3] (preparation alone) were “Activity was obtained” and “no activity”, respectively.
